{"source": "patent US20210009693A1", "about": "(MABSPACE BIOSCIENCES SUZHOU, published 2021)", "binders": {"B1": {"name": "21F11 (antibody, V domains shown)", "VH": "QVQLQQPGAELVKPGASVKLSCKASGYTFTSNWMHWVKQRPGQGLEWIGMMHPNSGSINYNEKFKNKATLTADKSSSTAYMQLSSLTSEDSAVYYCARSYYGSSPYYFDYWGQGTTLTVSS", "VL": "DIQMTQTTSSLSASLGDRVTISCRASQDISNYLNWYQQKPDGTVKLLIYYTSRLHSGVPSRFSGSGSGTDFSLTISNLEEEDIATYFCQQGDTLPWTFGGGTKLEIK", "notes": "Mouse monoclonal from hybridoma; also called mouse monoclonal antibody 21F11"}, "B2": {"name": "23F11-H4L4 (antibody, V domains shown)", "VH": "QVQLVQSGAEVKKPGASVKLSCKASGYIFTTYWMHWVKQRPGQGLEWIGMIQPNSGGTKYNEKFKKKATLTVDKSISTAYMELSRLTSDDTAVYYCARGAGTVDYFDYWGQGSTLTVSS", "VL": "DIVLTQSPASLAVSVGQRATITCRASESVDIYGNSFMHWYQQKPGQPPKLLIYRASNLESGIPARFSGSGSRTDFTLTINPVEANDTATYYCQQSTEDPYTFGGGTKLEIK", "notes": "Human IgG1 constant region with N297A; biotinylated in the alanine-scan ELISA; also called 23F11-H4L4-bio; humanized 23F11"}}, "key": {"[1]": {"molecular_target": "T1, Human PD-L1/CD274 with C-Fc Tag (hPD-L1-Fc) (human, UniProt Q9NZQ7 19-238)", "T1 construct": "range 19-238; ACRO Biosystem PD1-H5258, made in HEK293; also called human PD-L1-Fc; not shown: Fc fragment of human IgG1 at C-terminus", "T1 sequence (Q9NZQ7 19-238 limits assumed)": "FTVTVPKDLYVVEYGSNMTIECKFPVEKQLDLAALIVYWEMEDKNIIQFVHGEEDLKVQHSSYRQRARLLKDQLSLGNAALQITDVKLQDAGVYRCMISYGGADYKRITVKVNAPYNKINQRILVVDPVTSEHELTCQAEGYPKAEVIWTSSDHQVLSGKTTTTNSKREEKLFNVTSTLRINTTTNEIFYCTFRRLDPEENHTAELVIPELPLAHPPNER", "assay": "blocking ELISA on coated hPD-L1-Fc; blocked ligand: biotinylated hPD-1-Fc-N297A", "protocol": "High-binding clear polystyrene 96 well plates (Nunc) were coated with 100 μl/well of coating solution consisting of 0.5 μg/ml hPD-L1-Fc overnight at 4° C. Then washed once on an automatic plate washer using washing buffer PBS+0.1% Tween 20 (Sigma). 200 μl of blocking buffer (PBS+1% BSA+1% normal goat serum+0.05% Tween-20) was added to each well and incubated for 2 hours at room temperature. Then add serial diluted antibodies (from 10 μg/ml to 0.0006 μg/ml) with dilution buffer (PBS+1% BSA+1% normal goat serum+0.01% Tween-20) and incubate for 1 hour at RT. The plates were then washed 3 times using the method described above. […] After the plates were washed 3 times, 100 μl/well of a solution of HRP conjugated Neutravidin antibody (Pierce) diluted in dilution buffer was then added to each well of the plate. After that the ELISA plates were allowed to incubate for 60 min at RT then plates were washed 3 times with 250 μl/well washing buffer. Finally, 100 μl/well of TMB was added to each well and reaction was terminated using 0.64M H₂SO₄. The plates were read on a Thermo Multiscan FC at 450 nM (see FIG. 4A)."}, "[2]": {"molecular_target": "T2, Recombinant Mouse PD-L1/CD274 Protein (mPD-L1-his) (mouse, UniProt Q9EP73 19-238)", "T2 construct": "range 19-238; ACRO Biosystem PD1-M5220; also called mouse PD-L1-his", "T2 sequence (Q9EP73 other isoform, or with tags, fused parts or gaps limits assumed)": "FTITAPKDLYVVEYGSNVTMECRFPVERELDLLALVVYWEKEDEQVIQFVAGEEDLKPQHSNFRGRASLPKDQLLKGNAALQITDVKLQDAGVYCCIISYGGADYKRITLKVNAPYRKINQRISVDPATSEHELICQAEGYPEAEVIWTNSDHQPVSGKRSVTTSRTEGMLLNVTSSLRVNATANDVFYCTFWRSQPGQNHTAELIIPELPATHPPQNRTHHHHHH", "assay": "ELISA, 20 ug/ml antibody on coated mouse PD-L1 (his-tagged per text, mPD-L1-Fc per sheet title)", "procedure,_shortened": "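Wells coated overnight at 4 °C with 1 μg/ml mouse PD-L1-his, blocked 2 h with BSA/goat serum buffer; purified hybridoma mouse antibodies at 20 μg/ml bound 1 h at RT. Detection by HRP goat anti-mouse Fc (60 min, RT), TMB, acid stop, absorbance at 450 nm.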"}, "[3]": {"molecular_target": "T3, wild type human PD-L1-Fc protein (SEQ ID NO: 107) (human)", "T3 construct": "Extracellular human PD-L1 (amino acid 19-238) with Fc fragment of human IgG1, expressed in 293T cells and used as culture supernatant; also called WT PD-L1; wild-type PD-L1", "T3 sequence (chain, as listed by the source limits assumed)": "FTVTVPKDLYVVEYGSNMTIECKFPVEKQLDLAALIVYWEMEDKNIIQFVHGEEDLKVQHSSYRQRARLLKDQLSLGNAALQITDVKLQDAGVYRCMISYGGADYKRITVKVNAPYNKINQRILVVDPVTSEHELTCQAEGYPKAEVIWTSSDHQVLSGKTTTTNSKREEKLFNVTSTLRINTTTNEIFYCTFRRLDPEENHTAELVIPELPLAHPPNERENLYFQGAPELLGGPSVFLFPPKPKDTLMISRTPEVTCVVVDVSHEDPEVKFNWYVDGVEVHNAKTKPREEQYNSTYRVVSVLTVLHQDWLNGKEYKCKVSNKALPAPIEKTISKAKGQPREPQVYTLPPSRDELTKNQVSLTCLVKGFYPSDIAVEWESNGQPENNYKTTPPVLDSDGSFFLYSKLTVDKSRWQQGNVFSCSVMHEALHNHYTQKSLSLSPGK", "assay": "ELISA on hPD-L1-Fc captured from 293T supernatant, 0.5 ug/ml antibody"}, "[4]": {"molecular_target": "T4, Recombinant Human PD-L1/CD274 Protein (hPD-L1-his) (human, UniProt Q9NZQ7 19-238)", "T4 construct": "range 19-238; ACRO Biosystem PD1-H5229, made in HEK293; also called human PD-L1-his; hPD-L-his", "T4 sequence (Q9NZQ7 other isoform, or with tags, fused parts or gaps limits assumed)": "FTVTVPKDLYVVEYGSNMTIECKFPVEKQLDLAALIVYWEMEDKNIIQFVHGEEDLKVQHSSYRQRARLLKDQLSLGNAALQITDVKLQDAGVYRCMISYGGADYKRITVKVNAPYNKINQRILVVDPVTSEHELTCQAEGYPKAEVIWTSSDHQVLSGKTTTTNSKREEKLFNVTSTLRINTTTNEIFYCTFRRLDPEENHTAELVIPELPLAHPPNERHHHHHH", "assay": "ELISA, coated hPD-L1-his, acidic wash and incubation after binding at pH7.4", "protocol": "(§1) The pH-dependent binding affinity was further measured at various pH values, such as pH4, pH4.5, pH5.0, pH5.5, pH6.0, pH7.4. The measurement by ELISA was conducted similarly to the method described above. High-binding clear polystyrene 96 well plates were coated with 100 μl/well of a 0.5 μg/ml hPD-L1-his in high pH coating buffer and incubated overnight at 4° C. Then the coated plates were washed 3 times with shaking for 10s on an automatic plate washer with PBS+0.1% Tween 20 (Amresco). Then 200 μl of blocking buffer (1% BSA (Solarbio)+1% normal goat serum (Solarbio)+0.05% Tween 20 (Amresco)) was added to each well and the plates were then incubated for 2 hours at room temperature and washed 3 times as above. […] The plates were then washed once with 250 μl/well washing buffer at pH7.4, pH6.0, pH5.5, pH5.0, pH4.5 or pH4.0 and then 100 μl/well pH7.4 or pH5.5 washing buffer was added and the incubation was continued for 2 hours at RT with shaking. Afterwards, the plates was washed 3 times washing buffer at pH7.4 and 100 μl/well of a solution of HRP conjugated goat anti-hIgG HRP antibody (1:20000, Abcam) in pH7.4 dilution buffer was then added to each well of the plate. After that the plates were allowed to incubate for 60 min at room temperature followed by washing 3 times with 250 μl/well pH7.4 washing buffer. Finally, 100 μl/well of TMB was added to each well for 15 min and the reaction was terminated using 50 μl/well of 0.16M/L sulfuric acid. The plates were read on a Thermo Multiscan FC at 450 nm (see FIG. 23A-23F). The measurements were performed in triplicate."}, "[5]": {"molecular_target": "T4, Recombinant Human PD-L1/CD274 Protein …", "assay": "ELISA on coated hPD-L1-his; bound at pH7.4, then 2 h at pH7.4", "protocol": "as §1"}, "[6]": {"molecular_target": "T5, human PD-L1 expressed on cells (human, UniProt Q9NZQ7 19-290)", "T5 construct": "whole, on cells; also called hPD-L1 expressed on HCC827; hPD-L1 on MC38/hPD-L1 cells", "T5 sequence (Q9NZQ7 19-290)": "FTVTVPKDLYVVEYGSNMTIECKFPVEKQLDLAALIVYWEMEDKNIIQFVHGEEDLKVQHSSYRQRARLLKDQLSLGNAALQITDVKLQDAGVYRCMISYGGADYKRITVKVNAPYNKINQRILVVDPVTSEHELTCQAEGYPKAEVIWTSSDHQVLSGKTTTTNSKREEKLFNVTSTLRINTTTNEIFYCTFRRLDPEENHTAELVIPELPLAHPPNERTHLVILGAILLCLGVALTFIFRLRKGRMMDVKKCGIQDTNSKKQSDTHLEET", "assay": "blocking FACS on HCC827 cells; blocked ligand: biotinylated hPD-1-N297A", "protocol": "Log phase IFN-γ stimulated (500U/ml for 2 days) HCC827 cells were collected and resuspended in blocking buffer (5% BSA+PBS). 2×10\\hat{ }5 cells were added to each tube and then washed once with PBS (1500 rpm, 5 mins, RT). […] After washing for three times with PBS, 100 μl/tube streptavidin-PE 1:200 in blocking buffer was added to each tube. The cells were incubated at 4° C. for 1 hr and then washed twice with PBS, followed by resuspending cells in 150 μl PBS for each sample. The cells were then transferred into FACS tube and the binding of the antibodies to the cells were detected with flow cytometry (ACEA Bioscience Novocyte) (see FIGS. 20A and 20B)."}, "[7]": {"molecular_target": "T6, human PD-L1-Fc mutant E58A (human)", "T6 construct": "Position 58 counts on native human PD-L1 (NP_054862.1); also called E58A mutant", "T6 sequence (chain, as listed by the source E58A E58A limits assumed)": "as the sequence (chain, as listed by the source limits assumed) above, with E40A counted along it", "assay": "ELISA on captured PD-L1-Fc, as in Example 18A"}, "[8]": {"molecular_target": "T3, wild type human PD-L1-Fc protein (SEQ …)", "assay": "ELISA on captured PD-L1-Fc, as in Example 18A"}, "[9]": {"molecular_target": "T5, human PD-L1 expressed on cells", "assay": "flow cytometry (relative mean fluorescence) on human peripheral blood cells activated 3 days with anti-CD3 and anti-CD28; detection with anti-human IgG-APC"}, "[10]": {"molecular_target": "hPD-L1 (antigen of the Biacore assay) (human, UniProt Q9NZQ7 19-238, limits assumed)", "sequence (Q9NZQ7 19-238 limits assumed)": "as the sequence (Q9NZQ7 19-238 limits assumed) above", "assay": "SPR (Biacore), antibody captured on anti-human Fc, antigen in flow", "procedure,_shortened": "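Antibody captured to 200–300 RU on an anti-human Fc CM5 surface, with an uncaptured flow cell as reference; antigen injected at varying concentrations, 180 s association, in HBS-EP pH 7.4. Regeneration with glycine pH 1.5 for 120 s; reference-subtracted signals evaluated.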"}, "[11]": {"molecular_target": "T4, Recombinant Human PD-L1/CD274 Protein …", "assay": "ELISA on coated hPD-L1-his"}, "[12]": {"molecular_target": "T1, Human PD-L1/CD274 with C-Fc Tag …", "assay": "blocking ELISA on coated hPD-L1-Fc; blocked ligand: biotinylated hPD-1-N297A"}, "[13]": {"molecular_target": "T4, Recombinant Human PD-L1/CD274 Protein …", "assay": "ELISA on coated hPD-L1-his; bound at pH7.4, then 2 h at pH5.5", "protocol": "as §1, with “Finally, 100 μl/well of TMB was added to each well for 15 min and the reaction was terminated using 50 μl/well of 0.16M/L sulfuric acid.” left out, “The measurements were performed in triplicate.” left out"}}}
{"binder": "B1", "values": [{"measurement": "IC50 (read off the curve)", "setting": "[1]", "result": "~0.2", "unit": "µg/mL"}, {"measurement": "binding result", "setting": "[2]", "result": "no binding (tested: 20 ug/ml)"}, {"measurement": "binding result", "setting": "[3]", "result": "binds"}]}
{"binder": "B2", "values": [{"measurement": "binding signal at pH5 as percent of the signal at pH7.4", "setting": "[4]", "result": "< 50", "unit": "%"}, {"measurement": "binding signal at pH5.5 as percent of the signal at pH7.4", "setting": "[4]", "result": "< 75", "unit": "%"}, {"measurement": "EC50 (read off the curve)", "setting": "[5]", "result": "~0.007", "unit": "µg/mL"}, {"measurement": "IC50 (read off the curve)", "setting": "[6]", "result": "~0.03", "unit": "µg/mL"}, {"measurement": "% of binding of Ab to E58A mutant vs. that to WT PD-L1", "setting": "[7]", "result": 9.2, "unit": "%"}, {"measurement": "Mean OD450", "setting": "[7]", "result": 0.116, "unit": "OD450"}, {"measurement": "OD450 nM of sample-1", "setting": "[7]", "result": 0.129, "unit": "OD450"}, {"measurement": "OD450 nM of sample-2", "setting": "[7]", "result": 0.103, "unit": "OD450"}, {"measurement": "Mean OD450", "setting": "[8]", "result": 1.25, "unit": "OD450"}, {"measurement": "OD450 nM of sample-1", "setting": "[8]", "result": 1.18, "unit": "OD450"}, {"measurement": "OD450 nM of sample-2", "setting": "[8]", "result": 1.33, "unit": "OD450"}, {"measurement": "EC50", "setting": "[9]", "result": 0.0305, "unit": "µg/mL"}, {"measurement": "Kd", "setting": "[10]", "result": 65.4, "unit": "nM"}, {"measurement": "koff", "setting": "[10]", "result": 0.0304, "unit": "s⁻¹"}, {"measurement": "kon", "setting": "[10]", "result": 465000, "unit": "M⁻¹ s⁻¹"}, {"measurement": "EC50 (read off the curve)", "setting": "[11]", "result": "~0.001", "unit": "µg/mL"}, {"measurement": "IC50 (read off the curve)", "setting": "[12]", "result": "~0.03", "unit": "µg/mL"}, {"measurement": "EC50 (read off the curve)", "setting": "[13]", "result": "~0.01", "unit": "µg/mL"}]}
